Measured values reported in patent publication US20100330578 (published 2010).

Target: human alpha-thrombin (Homo sapiens, UniProt P00734;P00734 P00734:328-363,P00734:364-622)
Experiment: MST; 100 nM aptamer titrated with 0-16580 nM thrombin; 10% human serum, 1x SSC (150 mM NaCl, 15 mM Na3-citrate, pH 7.2), 5 mM KCl, 1 mM CaCl2, 1 mM MgCl2; IR-laser t

TGGTTGGTGTGGTTGGT (ssDNA) [Cy5-labelled thrombin DNA aptamer]: binds.
